Key:
[1] = molecular target: Neutrophil elastase (NE) (UniProt P08246); assay: cell-based or functional assay
[2] = molecular target: T1, neutrophil elastase (Homo sapiens, UniProt P08246); assay: Neutrophil Elastase Colorimetric Drug Discovery Assay (Enzo Life Sciences), in vitro inhibition of neutrophil elastase; format: biochemical
T1 construct: purchased Enzo Life Sciences
T1 sequence (P08246 30-267): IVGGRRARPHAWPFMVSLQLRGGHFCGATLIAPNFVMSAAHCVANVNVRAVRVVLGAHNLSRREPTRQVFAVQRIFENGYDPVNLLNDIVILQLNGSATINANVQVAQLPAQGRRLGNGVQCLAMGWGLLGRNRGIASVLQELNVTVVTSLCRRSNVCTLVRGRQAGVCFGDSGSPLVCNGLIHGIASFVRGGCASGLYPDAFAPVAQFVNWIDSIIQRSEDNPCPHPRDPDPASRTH
Description: In vitro studies were performed to test the ability of ulinastatin to inhibit neutrophil elastase (NE). The recombinant ulinastatin polypeptide (DM300) in this experiment is the UTIΔCS variant (SEQ ID NO: 2), which has an N-linked glycan at residue N45 and a non-natural O-linked glycan at residue T17 after recombinant preparation according to methods described in U.S. Provisional Application Nos. 63/108,733 and 63/021,938 (herein incorporated by reference).
Recombinant ulinastatin (DM300) was tested for inhibition of neutrophil elastase at 8 concentrations of DM300, with triplicate measurements per compound concentration. Neutrophil elastase activity was measured using the Neutrophil Elastase Colorimetric Drug Discovery Assay (Enzo Life Sciences) as per the manufacturer's protocol. 65 μl of assay buffer was placed into the required number of wells of a 96 well, clear, half area plate and equilibrated to 37° C. Inhibitor was added to a final reaction concentration at 100, 31.6, 10, 3.16, 1, 0.316, 0.1, 0.0316, or 0 μg/mL DM300 by addition of 20 μl of 5× concentration of DM300 diluted in assay buffer, followed by 10 μl of diluted neutrophil elastase. 100 μM elastatinal was also included as a control. After 15 minutes at 37° C., 5 μl of diluted substrate was added and the plate was read in SpectraMax m5 Microplate Reader equilibrated to 37° C. Linear portions of the data were selected, and the resulting data was analyzed using GraphPad Prism V.8.2.1.

With “Recombinant ulinastatin polypeptide (DM300), UTIΔCS variant (from UniProt P02760 206-352)” the IC50 (inhibition of neutrophil elastase activity, colorimetric substrate assay) [1] was 3.15 µg/mL, the IC50 (inhibition of neutrophil elastase activity, colorimetric substrate assay), molar conversion [1] was 43.8 nM and the LogIC50 (best-fit value) [1] was 0.499 log10(µg/ml).

B1: DM300: recombinant ulinastatin polypeptide, UTIΔCS variant (SEQ ID NO: 2, S10A), N-linked glycan at N45 and non-natural O-linked glycan at T17 (protein, listed as Homo sapiens)
chain: AVLPQEEEGAGGGQLVTEVTKKEDSCQLGYSAGPCMGMTSRYFYNGTSMACETFQYGGCMGNGNNFVTEKECLQTCRTVAACNLPIVRGPCRAFIQLWAFDAVKGKCVLFPYGGCQGNGNKFYSEKECREYCGVPGDGDEELLRFSN
modifications: N-glycan N45, O-glycan T17
B1 was tested, and the “inhibitory activity in an in vitro assay of neutrophil elastase activity” value ([2]; FIG. 1) was “significant inhibitory activity”, the HillSlope ([2]; best-fit value, log(inhibitor) vs. response, variable slope (four parameters)) was −1.004 and the LogIC50 ([2]; best-fit value, log(inhibitor) vs. response, variable slope (four parameters), concentration in μg/mL) was 0.4987. The IC50 ([2]; converted from 3.153 μg/ml, assuming 1 Da=1 g/mol) was ~43.8 nM.
